From patent publication US12637685B2, “Method for rapid genome modification in recalcitrant plants” (KWS SAAT SE & Co. KGaA, priority 2020, dated 2026)

Tests used:
Type in all cases: cell-based
[1] = test system: CRISPR target m7GEP1 (maize HMG13 gene) in corn A188 immature embryos; experiment: SDN-1 efficiency after co-delivery of TSA with editing plasmids, target m7GEP1, Taqman ddPCR (Example 18); conditions: 15 ng TSA co-bombarded, 48 hours after bombardment, 6 repeats
Method: (§1) The amounts of TSA used for a bombardment with 100 μg of gold particles (approximately, 4.0-5.0×10^7 gold particles size of 0.6 micron) is 15 ng. Specifically, the plasmid DNA and TSA were co-coated onto gold particles for bombardment as follows. For 10 shots, 100 microlite (μl) of 10 mg/ml 0.6 μm gold particle in 50% (v/v) glycerol particle stock solution (1.0 mg of the gold particles in total for 10 shots, and 100 μg per shot) was pipetted into a clear low-retention microcentrifuge tube. Sonicate for 15 seconds to suspend the gold particles. While vortex at a low speed, add the following in order: • 1.0 μg of pGEP1054 (FIG. 15), 1.5 μg of pGEP842 (FIG. 2) or pGEP1067 (FIG. 32) • 100 μl of 2.5 M CaCl2 (pre-cold on ice) • 40 μl of 0.1 M cold spermidine Close the lid and vortex the tube for 5 minutes at room temperature and spin down the DNA-coated gold particles. After washing in 1000 μl of 100% ethanol (pre-cold at −20° C.) for two times, the pellet was resuspended in 120 μl of 100% ethanol. Finally, 150 ng of TSA was added into the resuspended gold particle solution carefully. While vertexing at a low speed, pipet 10 μl of TSA co-coated gold particles with a wide open 20 μl tip from the tube onto the center of the macrocarrier evenly. Since the particles tend to form clumps at this point, get the gold particles onto the macrocarriers as soon as possible. […]

[2] = test system: CRISPR target m7GEP22 (maize HMG13 gene) in corn A188 immature embryos; experiment: SDN-1 efficiency after co-delivery of TSA with editing plasmids, target m7GEP22, Taqman ddPCR (Example 18); conditions: 15 ng TSA co-bombarded, 48 hours after bombardment, 6 repeats
Method: as §1

[3] = test system: maize HMG13 gene in maize A188 immature embryos; experiment: Genome editing SDN-1 in regenerated T0 plants of maize A188 (Example 5); conditions: for Total SDN-1: T0 events; for Bi-SDN-1: T0 events with bi-allelic SDN-1; for Mon-SDN-1: T0 events with mono-allelic SDN-1; for % SDN-1/IE: per immature embryo initially used; for % SDN-1/Event: per regenerated T0 event; for Total Events: regenerated T0 events, co-bombarded with pGEP837 and pGEP842
Method: Specifically, construct pGEP837 (SEQ ID NO: 52, FIG. 1) and the crRNA construct pGEP842 (SEQ ID NO: 53, FIG. 2) were co-bombarded with the different boosters as indicated into maize A188 immature embryos by particle bombardment. For each bombardment (shot), 100 ng of plasmid pGEP837 were cocoated with 150 ng of plasmid pGEP842 and 100 ng each of different boost constructs onto 100 μg of 0.4 μm gold particles using calcium-spermidine method. Three bombardments (shots) per sample plate were performed.
(§2) After bombardment the embryos were remained on the osmotic medium (N60SM) for another 16-20 hours. The embryos were transferred from the osmotic medium onto embryogenic callus induction medium (e.g. N6_5Ag) in a petri dish plate (100×25 mm) with scutellum-face-up, at a density of 12-15 embryos per plate. The embryos were incubated at 27° C. in dark for the embryogenic callus induction. After embryogenic callus induction in N6_5Ag medium for 10-14 days the induced calluses were transferred onto embryo maturation medium MRM1 in petro dish (100×25 mm), and cultured at 27° C. in dark for 10 days, and then at 25° C., weak light (20-50 μmol m^−2 s^−1) for 2-4 days. The mature somatic embryos were then transferred onto MSO medium (see below) in phytotray for plant outgrowth and further development for 5-7 days. A 5-10 mm leaf tip from each of the leaves of a T0 plant is collected for DNA extraction. The targeted genome editing SDN-1 in the regenerated T0 plants are screened by TaqMan real-time PCR (qPCR), and further conformed by Sanger sequencing trace decomposition analysis.

[4] = test system: maize HMG13 gene in immature embryos of maize recalcitrant elite 2V-20195; experiment: Genome editing SDN-1 in T0 plants of elite 2V-20195 (Example 12)
Method: as §2
(§3) The workflow was as described in Example 6. For immature embryo isolation, osmotic treatment, and bombardment, please see the description in Example 1. Specifically, genome editing constructs pGEP837 (SEQ ID NO: 52, FIG. 1) and pGEP842 (SEQ ID NO: 53, FIG. 2) were co-bombarded with the different boosters as indicated into the immature embryos of maize elite 2V-20195 by particle bombardment. For each bombardment (shot), 100 ng of plasmid pGEP837 and 150 ng of plasmid pGEP842 were co-coated with 100 ng each of different boost constructs onto 100 μg of 0.4 μm gold particles using calcium-spermidine method. Three bombardments (shots) per sample plate were performed. The bombarded embryos were transformed onto the embryogenic callus induction medium 16-20 hours after bombardment.
(§4) For plant regeneration, and genome editing SDN-1 screen and conformation in regenerated T0 plants please see Example 5 and Example 9.

[5] = test system: maize HMG13 gene in immature embryos of maize recalcitrant elite 4V-40290; experiment: Genome editing SDN-1 in T0 plants of elite 4V-40290 (Example 13); conditions: for Bi-SDN-1 / Mon-SDN-1 / Total SDN-1: T0 events; for % SDN-1/IE: per immature embryo initially used; for % SDN-1/Event: per regenerated T0 event; for Total Event: regenerated T0 events, co-bombarded with pGEP837 and pGEP842
Method: as §2
as §3, with “of” for “of maize”, “4V-40290” for “2V-20195”, “cocoated” for “co-coated”
as §4

For `CC(/C=C/C(=O)NO)=C\[C@@H](C)C(=O)c1ccc(N(C)C)cc1` [TSA, trichostatin A], the “increase in the SDN-1 efficiency compared to the control without TSA (CK)” value [1] was 61.5% and the “increase in the SDN-1 efficiency compared to the control without TSA (CK)” value [2] was 354.5%.

B1: RBP2: artificial regeneration booster protein, SEQ ID NO: 33 (CDS SEQ ID NO: 21), expressed from construct pABM-BdEF1_RBP2 (protein)
chain: MESGSGTAAGSGYVYRQSGSTRWNPTAEQLSLLKELYYRNGIRTPSADQIRQISARLSRYGKIEGKNVFYWFQNHKARERQKKRLSTVGCDPALIEMGNVASLEFGTESALESLSSGPSSELREAPTRKFYEKKTVGENSTIINPVEQNCTLSCGTSQEFQYAVDSRRVMKAMEEKQATDDEPDGNKWTESNRHVKTLPLFPLHNNEDQTLIKSDKEIYCLGSCEKKMDLSPLGHSGSQRASALDLCLSLGNESCGLHDN
B1 was tested, and the “Total SDN-1” value [3] was 34, the Bi-SDN-1 [3] was 20 and the Mon-SDN-1 [3] was 14. The “% SDN-1/IE” value [3] was 22.7%, the “% SDN-1/Event” value [3] was 14.3% and the “Total Events” value [3] was 237. For the same molecule, the Bi-SDN-1 ([4]; T0 events) was 1, the Mon-SDN-1 ([4]; T0 events) was 0 and the “Total SDN-1” value ([4]; T0 events) was 1. The “% SDN-1/IE” value ([4]; per immature embryo initially used) was 2.1%, the “% SDN-1/Event” value ([4]; per regenerated T0 event) was 6.3% and the “Total Event” value ([4]; regenerated T0 events, co-bombarded with pGEP837 and pGEP842) was 16. The Bi-SDN-1 [5] was 2, the Mon-SDN-1 [5] was 0 and the “Total SDN-1” value [5] was 2. For the same molecule, the “% SDN-1/IE” value [5] was 9.1%, the “% SDN-1/Event” value [5] was 13.3% and the “Total Event” value [5] was 15.

B2: RBP7: artificial regeneration booster protein, SEQ ID NO: 38 (CDS SEQ ID NO: 26), construct pABM-BdEF1_RBP7 (protein)
chain: MVSKGEEVIKEFSGSTRWNPTAEQLSLLKELYYRNGIRTPSADQIRQISARLSRYGKIEGKNVFYWFQNHKARERQKKRLSTVGCDPALIEMGNVASLEFGTESALESLSSGPSSELREAPTRKFYEKKTVGENSTIINPVEQNCTLSCGTSQEFQYAVDSRRVMKAMEEKQATDDEPDGNKWTESNRHVKTLPLFPLHNNVETLPLFPEDSGSLDLELELGFASGGSAGSVDTLPLFPREAAGSGEFATAAATSGSQRASALDLCLSLGNESCGLHDN
For B2, the “Total SDN-1” value [3] was 6, the Bi-SDN-1 [3] was 5 and the Mon-SDN-1 [3] was 1. The “% SDN-1/IE” value [3] was 19.4%, the “% SDN-1/Event” value [3] was 12.0% and the “Total Events” value [3] was 50.

B3: RBP5: artificial regeneration booster protein, SEQ ID NO: 36 (CDS SEQ ID NO: 24), construct pABM-BdEF1_RBP5 (protein)
chain: MVSKGEEVIKEFSGSTRWNPTAEQLSLLKELYYRNGIRTPSADQIRQISARLSRYGKIEGKNVFYWFQNHKARERQKKRLSTVGCGSAGSAAGSGEFRHVKTLPLFPLHNNVETLPLFPEDSGSLDLELELGFASATAAATSGSQRASALDLCLSLGNESCGLHDN
B3 was tested, and the “Total SDN-1” value [3] was 11, the Bi-SDN-1 [3] was 8 and the Mon-SDN-1 [3] was 3. For the same molecule, the “% SDN-1/IE” value [3] was 23.4%, the “% SDN-1/Event” value [3] was 4.9% and the “Total Events” value [3] was 224.

B4: RBP8: artificial regeneration booster protein, SEQ ID NO: 39 (CDS SEQ ID NO: 27), construct pABM-BdEF1_RBP8 (protein)
chain: MVSKGEEVIKEFSGSTRWNPTAEQVKVLREIYYRAGLRTPSADQIRQISSQLKRYGKVEGKNVFYWFQNHKARERQKKRLSTVGSAGSAAGSGEFRHVKTLPLFPLHNNEDSGSGLDLDLNLELRLSATAAATSGSQRASALDLDLELRLGFALGNESCGLHDN
With B4 the “Total SDN-1” value [3] was 9, the Bi-SDN-1 [3] was 5 and the Mon-SDN-1 [3] was 4. The “% SDN-1/IE” value [3] was 39.1%, the “% SDN-1/Event” value [3] was 13.4% and the “Total Events” value [3] was 67. For the same molecule, the Bi-SDN-1 [5] was 1, the Mon-SDN-1 [5] was 6 and the “Total SDN-1” value [5] was 7. For the same molecule, the “% SDN-1/IE” value [5] was 28.0%, the “% SDN-1/Event” value [5] was 20.6% and the “Total Event” value [5] was 34.
